Reference: paper PMC4096120 (Science signaling, 2013)

Molecular target: eGFP-DGKζ (fusion of enhanced green fluorescent protein and diacylglycerol kinase ζ) (UniProt Q80UP3 1-929)
Experiment: co-IP

Chain of eGFP-DGKζ (fusion of enhanced green fluorescent protein and diacylglycerol kinase ζ) (Q80UP3 whole entry, the tested form may be a part): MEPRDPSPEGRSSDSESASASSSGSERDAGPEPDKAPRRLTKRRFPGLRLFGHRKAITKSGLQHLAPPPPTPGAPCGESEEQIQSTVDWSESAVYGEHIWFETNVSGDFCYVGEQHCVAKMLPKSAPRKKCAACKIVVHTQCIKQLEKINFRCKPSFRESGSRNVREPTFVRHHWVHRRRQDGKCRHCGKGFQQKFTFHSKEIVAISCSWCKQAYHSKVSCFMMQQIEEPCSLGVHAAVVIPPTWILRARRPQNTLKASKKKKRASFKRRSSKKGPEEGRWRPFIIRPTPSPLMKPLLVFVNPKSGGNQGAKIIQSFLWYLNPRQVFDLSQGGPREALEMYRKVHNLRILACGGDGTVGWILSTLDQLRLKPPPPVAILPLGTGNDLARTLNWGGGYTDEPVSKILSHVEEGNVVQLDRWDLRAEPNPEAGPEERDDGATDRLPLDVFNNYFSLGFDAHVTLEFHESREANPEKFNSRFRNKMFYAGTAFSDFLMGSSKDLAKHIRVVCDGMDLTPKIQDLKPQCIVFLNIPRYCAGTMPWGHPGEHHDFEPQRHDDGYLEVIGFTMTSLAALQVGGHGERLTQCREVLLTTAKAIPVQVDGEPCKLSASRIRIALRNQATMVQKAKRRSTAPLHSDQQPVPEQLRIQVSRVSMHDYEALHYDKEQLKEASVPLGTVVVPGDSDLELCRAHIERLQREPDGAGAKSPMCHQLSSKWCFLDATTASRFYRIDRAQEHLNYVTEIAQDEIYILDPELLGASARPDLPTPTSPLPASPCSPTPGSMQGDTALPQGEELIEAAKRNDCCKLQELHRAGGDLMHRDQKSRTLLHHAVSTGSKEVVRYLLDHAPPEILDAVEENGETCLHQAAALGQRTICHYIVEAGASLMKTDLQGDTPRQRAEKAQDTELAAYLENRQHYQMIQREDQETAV

B1: RasGRP1 (Ras guanyl nucleotide-releasing protein 1), from pEF6-huRasGRP1-myc/His wild-type plasmid (natural protein, human, UniProt O95267 1-797, looked up)
chain: MGTLGKAREAPRKPSHGCRAASKARLEAKPANSPFPSHPSLAHITQFRMMVSLGHLAKGASLDDLIDSCIQSFDADGNLCRSNQLLQVMLTMHRIVISSAELLQKVITLYKDALAKNSPGLCLKICYFVRYWITEFWVMFKMDASLTDTMEEFQELVKAKGEELHCRLIDTTQINARDWSRKLTQRIKSNTSKKRKVSLLFDHLEPEELSEHLTYLEFKSFRRISFSDYQNYLVNSCVKENPTMERSIALCNGISQWVQLMVLSRPTPQLRAEVFIKFIQVAQKLHQLQNFNTLMAVIGGLCHSSISRLKETSSHVPHEINKVLGEMTELLSSSRNYDNYRRAYGECTDFKIPILGVHLKDLISLYEAMPDYLEDGKVNVHKLLALYNHISELVQLQEVAPPLEANKDLVHLLTLSLDLYYTEDEIYELSYAREPRNHRAPPLTPSKPPVVVDWASGVSPKPDPKTISKHVQRMVDSVFKNYDHDQDGYISQEEFEKIAASFPFSFCVMDKDREGLISRDEITAYFMRASSIYSKLGLGFPHNFQETTYLKPTFCDNCAGFLWGVIKQGYRCKDCGMNCHKQCKDLVVFECKKRAKNPVAPTENNTSVGPVSNLCSLGAKDLLHAPEEGPFTFPNGEAVEHGEESKDRTIMLMGVSSQKISLRLKRAVAHKATQTESQPWIGSEGPSGPFVLSSPRKTAQDTLYVLPSPTSPCPSPVLVRKRAFVKWENKDSLIKSKEELRHLRLPTYQELEQEINTLKADNDALKIQLKYAQKKIESLQLEKSNHVLAQMEQGDCS
fold binding relative to DGKα: ≤ 3 fold
